Positions count from the first letter of the chain named.
B1: HA-IKKα(LZ)^- (enzyme, not shown: small tags and cut ends)
chain: MERPPGLRPGAGGPWEMRERLGTGGFGNVCLYQHRELDLKIAIKSCRLELSTKNRERWCHEIQIMKKLNHANVVKACDVPEELNILIHDVPLLAMEYCSGGDLRKLLNKPENCCGLKESQILSLLSDIGSGIRYLHENKIIHRDLKPENIVLQDVGGKIIHKIIDLGYAKDVDQGSLCTSFVGTLQYLAPELFENKPYTATVDYWSFGTMVFECIAGYRPFLHHLQPFTWHEKIKKKDPKCIFACEEMSGEVRFSSHLPQPNSLCSLIVEPMENWLQLMLNWDPQQRGGPVDLTLKQPRCFVLMDHILNLKIVHILNMTSAKIISFLLPPDESLHSLQSRIERETGINTGSQELLSETGISLDPRKPASQCVLDGVRGCDSYMVYLFDKSKTVYEGPFASRSLSDCVNYIVQDSKIQLPIIQLRKVWAEAVHYVSGLKEDYSRLFQGQRAAMLSLLRYNANSTKMKNTSISASQQLKAKLEFFHKSIQLDLERYSEQMTYGISSEKMLKAWKEMEEKAIHYAEVGVIGYLEDQIMSLHAEIMELQKSPYGRRQGDLMESLEQRAIDLYKQLKHRPSDHSYSDSTEMVKIIVHTVQSQDRVLKERFGHLSKLLGCKQKIIDLLPKVEVALSNIKEADNTVMFMQGKRQKEIWHLLKIACTQSSARSLVGSSLEGAVTPQAYAWLAPDLAEHDHSLSCVVTPQDGETSAQMIEENLNCLGHLSTIIHEANEEQGNSMMNLDWSWLTE
notes: Leucine zipper mutant of IKKα; also called IKKα(LZ)^- mutant; IKKα LZ^- mutant
B2: IKKα (full length human IKKα subunit) (enzyme)
chain: B1 chain with S462L, S469L
notes: Endogenous protein of HeLa or 293 cells; also called endogenous IKKα; 85 kDa protein

What was measured:
Flag-IKKβ [1] = target: T1, Flag-IKKβ
T1 chain: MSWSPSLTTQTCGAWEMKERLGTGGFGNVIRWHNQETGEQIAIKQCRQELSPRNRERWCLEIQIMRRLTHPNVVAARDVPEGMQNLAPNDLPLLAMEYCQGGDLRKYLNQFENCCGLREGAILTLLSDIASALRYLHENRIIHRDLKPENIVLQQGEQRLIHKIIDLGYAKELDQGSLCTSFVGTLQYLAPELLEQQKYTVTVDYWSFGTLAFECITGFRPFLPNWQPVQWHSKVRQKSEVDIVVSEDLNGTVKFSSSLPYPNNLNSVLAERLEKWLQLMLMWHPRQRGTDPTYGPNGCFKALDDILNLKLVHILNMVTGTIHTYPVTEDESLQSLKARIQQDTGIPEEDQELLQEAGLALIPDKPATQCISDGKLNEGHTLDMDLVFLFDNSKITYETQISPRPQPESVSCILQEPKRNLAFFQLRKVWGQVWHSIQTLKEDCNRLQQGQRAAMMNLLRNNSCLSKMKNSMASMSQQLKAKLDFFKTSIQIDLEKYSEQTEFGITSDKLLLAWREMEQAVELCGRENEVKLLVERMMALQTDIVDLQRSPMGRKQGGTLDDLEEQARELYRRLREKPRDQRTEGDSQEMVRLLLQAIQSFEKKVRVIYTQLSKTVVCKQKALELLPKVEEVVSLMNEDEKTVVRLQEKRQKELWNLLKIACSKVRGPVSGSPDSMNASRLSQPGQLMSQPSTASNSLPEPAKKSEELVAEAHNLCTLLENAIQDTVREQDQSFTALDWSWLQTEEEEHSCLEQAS

Flag-IKKβ [2] = target: T2, Flag-IKKβ (human, UniProt O14920 1-756); experiment: coimmunoprecipitation from transfected 293 cells: anti-HA immune complexes probed with anti-Flag(M2)
T2 construct: Transiently coexpressed in 293 cells
T2 sequence: T1 chain

[3] = target: the molecule itself; experiment: immunoprecipitation experiments, transfected mammalian cells
[4] = target: T3, IKKβ (full length human IKKβ subunit) (human, UniProt O14920 1-756); experiment: as above
T3 construct: Endogenous protein of HeLa cells; also called endogenous IKKβ; 87 kDa protein
T3 sequence: T1 chain

Binder | IKK activity isolated by immunoprecipitation with anti-HA (IκB kinase activity) (Flag-IKKβ [1]) | binding result (Flag-IKKβ [2]) | binding result [3] | binding result [4]
B1 | had no effect on the very low activity that coprecipitated with HA-IKKα(LZ)^- | no binding | – | –
B2 | – | – | binds | binds

Source: patent US20040228849A1 (University of California, published 2004)
